Data on 33 molecules can be found in US20210355194A1 (TWIST BIOSCIENCE, published 2021).

B1: variant 6-75 (Fc fusion)
VHH: EVQLVESGGGLVQPGGSLRLSCAASGGTFSTYWMGWFRQAPGKEREFVAAISRSGGNTYYADSVKGRFTISADNSKNTAYLQMNSLKPEDTAVYYCVRHSGTDGDSSFDYWGQGTLVTVSS
B2: variant 6-58 (Fc fusion)
VHH: EVQLVESGGGLVQPGGSLRLSCAASGRAVSTYAMGWFRQAPGKEREFVAAISGSENVTSYADSVKGRFTISADNSKNTAYLQMNSLKPEDTAVYYCLSVTGDTEDYGVFDTWGQGTLVTVSS
B3: variant 6-90 (Fc fusion)
VHH: EVQLVESGGGLVQPGGSLRLSCAASGFPFSIWPMGWFRQAPGKEREFVAAVRWSSTYYADSVKGRFTISADNSKNTAYLQMNSLKPEDTAVYYCATGECDGGSCSLAYWGQGTLVTVSS
B4: variant 6-56 (Fc fusion)
VHH: EVQLVESGGGLVQPGGSLRLSCAASGNIFRSNMGWFRQAPGKEREFVAGITWNGDTTYYADSVKGRFTISADNSKNTAYLQMNSLKPEDTAVYYCARALGVTYQFDYWGQGTLVTVSS
B5: variant 6-50 (Fc fusion)
VHH: EVQLVESGGGLVQPGGSLRLSCAASGFSFDRWAMGWFRQAPGKEREWVASLATGGNTNYADSVKGRFTISADNSKNTAYLQMNSLKPEDTAVYYCARVTNYDAFDIWGQGTLVTVSS
B6: variant 6-73 (Fc fusion)
VHH: EVQLVESGGGLVQPGGSLRLSCAASGHTFSGYAMGWFRQAPGKEREFVAVITREGSTYYADSVKGRFTISADNSKNTAYLQMNSLKPEDTAVYYCARLGGEGFDYWGQGTLVTVSS
notes: VHH-Fc
B7: variant 6-52 (Fc fusion)
VHH: EVQLVESGGGLVQPGGSLRLSCAASGDTYGSYWMGWFRQAPGKEREVVAAITSGGSTVYADSVKGRFTISADNSKNTAYLQMNSLKPEDTAVYYCARVDSRFDYWGQGTLVTVSS
B8: variant 6-55 (Fc fusion)
VHH: EVQLVESGGGLVQPGGSLRLSCAASGFTMSSSWMGWFRQAPGKEREFVARITSGGSTGYADSVKGRFTISADNSKNTAYLQMNSLKPEDTAVYYCASVDGYFDYWGQGTLVTVSS
notes: VHH-Fc
B9: variant 6-84 (Fc fusion)
VHH: EVQLVESGGGLVQPGGSLRLSCAASGFTPDDYAMGWFRQAPGKEREFVAAINSGGSYTYYADSVKGRFTISADNSKNTAYLQMNSLKPEDTAVYYCARDRGPWGQGTLVTVSS
B10: variant 6-97 (Fc fusion)
VHH: EVQLVESGGGLVQPGGSLRLSCAASGFTFSSLAMGWFRQAPGKEREFVAAITWSGDITNYADSVKGRFTITADNSKNTAYLQMNSLKPEDTAVYYCLRLSSSGFDHWGQGTLVTVSS
B11: variant 6-62 (Fc fusion)
VHH: EVQLVESGGGLVQPGGSLRLSCAASGSTFSGNWMGWFRQAPGKEREFVAVISWTGGSTYYADSVKGRFTISADNSKNTAYLQMNSLKPEDTAVYYCATHNSLSGFDYWGQGTLVTVSS
B12: variant 6-47 (Fc fusion)
VHH: EVQLVESGGGLVQPGGSLRLSCAASGRTFSMHAMGWFRQAPGKERELVASITYGGNINYADSVKGRFTISADNSKNTAYLQMNSLKPEDTAVYYCAKEGYYDSTGYRTYFQQWGQGTLVTVSS
B13: variant 6-67 (Fc fusion)
VHH: EVQLVESGGGLVQPGGSLRLSCAASGSFSNYAMGWFRQAPGKEREFVAAISSSGALTSYADSVKGRFTISADNSKNTAYLQMNSLKPEDTAVYYCWIVGPGPLDGMDVWGQGTLVTVSS
B14: variant 6-57 (Fc fusion)
VHH: EVQLVESGGGLVQPGGSLRLSCAASGLTFDDHSMGWFRQAPGKEREFVAAVPLSGNTYYADSVKGRFTISADNSKNTAYLQMNSLKPEDTAVYYCASFSGGPADFDYWGQGTLVTVSS
B15: variant 6-95 (Fc fusion)
VHH: EVQLVESGGGLVQPGGSLRLSCAASGIPSSIRAMGWFRQAPGKEREFVAVIRWTGGSTYYADSVKGRFTISADNSKNTAYLQMNSLKPEDTAVYYCARDIGYYDSSGYYNDGGFDYWGQGTLVTVSS
B16: variant 6-45 (Fc fusion)
VHH: EVQLVESGGGLVQPGGSLRLSCAASGNMFSINAMGWFRQAPGKEREFVTLISWSSGRTSYADSVKGRFTISADNSKNTAYLQMNSLKPEDTAVYYCASLGYCSGGSCFDYWGQGTLVTVSS
B17: variant 6-70 (Fc fusion)
VHH: EVQLVESGGGLVQPGGSLRLSCAASGFNLDDYADMGWFRQAPGKEREFVAAIGWGGGSTRYADSVKGRFTISADNSKNTAYLQMNSLKPEDTAVYYCAREILWFGEFGEPNVWGQGTLVTVSS
B18: variant 6-49 (Fc fusion)
VHH: EVQLVESGGGLVQPGGSLRLSCAASGSTVLINAMGWFRQAPGKEREFVAAISWSPGRTDYADSVKGRFTISADNSKNTAYLQMNSLKPEDTAVYYCARDCSGGSCYSGDYWGQGTLVTVSS
B19: variant 6-72 (Fc fusion)
VHH: EVQLVESGGGLVQPGGSLRLSCAASGSTLSINAMGWFRQAPGKEREFVAAIDWSGGSTAYADSVKGRFTISADNSKNTAYLQMNSLKPEDTAVYYCARDSSATRTGPDYWGQGTLVTVSS
B20: variant 6-44 (Fc fusion)
VHH: EVQLVESGGGLVQPGGSLRLSCAASGGTFGVYHMGWFRQAPGKEREFIGRITWTDGSTYYADSVKGRFTISADNSKNTAYLQMNSLKPEDTAVYYCFGLLEVYDMTFDYWGQGTLVTVSS
B21: variant 6-78 (Fc fusion)
VHH: EVQLVESGGGLVQPGGSLRLSCAASGRTYDAMGWFRQAPGKEREFVASVTSGGYTHYADSVKGRFTISADNSKNTAYLQMNSLKPEDTAVYYCAKFGRKIVGATELDYWGQGTLVTVSS
notes: VHH-Fc
B22: variant 6-54 (Fc fusion)
VHH: EVQLVESGGGLVQPGGSLRLSCAASGFEFENHWMGWFRQAPGKEREYVAHITAGGLSNYADSVKGRFTISADNSKNTAYLQMNSLKPEDTAVYYCGRHWGIYDSSGFSSFDYWGQGTLVTVSS
B23: variant 6-53 (Fc fusion)
VHH: EVQLVESGGGLVQPGGSLRLSCAASGISINTNVMGWFRQAPGKEREFVAAISTGSVTIYADSVKGRFTISADNSKNTAYLQMNSLKPEDTAVYYCARVDDFGYFDLWGQGTLVTVSS
B24: variant 6-68 (Fc fusion)
VHH: EVQLVESGGGLVQPGGSLRLSCAASGFTLSDRAMGWFRQAPGKEREYVAHITAGGLSNYADSVKGRFTISADNSKNTAYLQMNSLKPEDTAVYYCVHLASQTGAGYFDLWGQGTLVTVSS
B25: variant 6-99 (Fc fusion)
VHH: EVQLVESGGGLVQPGGSLRLSCAASGIPFRSRTMGWFRQAPGKEREFVAGISRSGASTAYADSVKGRFTISADNSKNTAYLQMNSLKPEDTAVYYCTHANDYGDYWGQGTLVTVSS
B26: variant 6-74 (Fc fusion)
VHH: EVQLVESGGGLVQPGGSLRLSCAASGFAFGDSWMGWFRQAPGKERELVAAITSGGSTDYADSVKGRFTISADNSKNTAYLQMNSLKPEDTAVYYCARGLLWFGELFGYWGQGTLVTVSS
B27: variant 6-82 (Fc fusion)
VHH: EVQLVESGGGLVQPGGSLRLSCAASGSSLDAYGMGWFRQAPGKEREFVAAISWGGGSIYYADSVKGRFTISADNSKNTAYLQMNSLKPEDTAVYYCARLSQGMVALDYWGQGTLVTVSS
B28: variant 6-60 (Fc fusion)
VHH: EVQLVESGGGLVQPGGSLRLSCAASGDTYGSYWMGWFRQAPGKEREFVATISQSGAATAYADSVKGRFTISADNSKNTAYLQMNSLKPEDTAVYYCAGLLRYSGTYYDAFDVWGQGTLVTVSS
notes: VHH-Fc
B29: variant 6-51 (Fc fusion)
VHH: EVQLVESGGGLVQPGGSLRLSCAASGYTYSSYVMGWFRQAPGKEREFVAAISRFGSTYYADSVKGRFTISADNSKNTAYLQMNSLKPEDTAVYYCARDSGEHFWDSGYIDHWGQGTLVTVSS
B30: variant 6-66 (Fc fusion)
VHH: EVQLVESGGGLVQPGGSLRLSCAASGLTFSLFAMGWFRQAPGKERELVAAISSGGSTDYADSVKGRFTISADNSKNTAYLQMNSLKPEDTAVYYCARGNTKYYYDSSGYSSAFDYWGQGTLVTVSS
B31: variant 6-71 (Fc fusion)
VHH: EVQLVESGGGLVQPGGSLRLSCAASGITFSNDAMGWFRQAPGKEREFVAIITSSDTNDTTNYADSVKGRFTISADNSKNTAYLQMNSLKPEDTAVYYCARLHYYDSSGYFDYWGQGTLVTVSS
B32: variant 6-46 (Fc fusion)
VHH: EVQLVESGGGLVQPGGSLRLSCAASGLTFSAMGWFRQAPGKEREFVALIRRDGSTIYADSVKGRFTISADNSKNTAYLQMNSLKPEDTAVYYCAALGILFGYDAFDIWGQGTLVTVSS
B33: variant 6-76 (Fc fusion)
VHH: EVQLVESGGGLVQPGGSLRLSCAASGLAFDFDGMGWFRQAPGKEREGVAAINSGGSTYYADSVKGRFTISADNSKNTAYLQMNSLKPEDTAVYYCARFFRAHDYWGQGTLVTVSS
notes: VHH-Fc

For orientation: Kd means the equilibrium constant for the complex coming apart.

In the test the target is CV S-protein construct 6 trimer TP31001F (SARS-CoV-2, UniProt P0DTC2 14-1208). Put plainly: SPR.
In the case of B1, the Kd came out at 1 nM. The figure for B2 is 1 nM; for B3 it is 17.1 nM. The figure for B4 is 14.9 nM; for B5 it is 67.6 nM; for B6 it is 0.5 nM. The figure for B7 is 1.1 nM; for B8 it is 0.3 nM. Take B9: the affinity, expressed as Kd, was 0.7 nM. Next, B10: 57.9 nM; B11: 198 nM; B12: 5.6 nM.

In the case of B13, the Kd worked out at 0.1 nM.

Turning to B14, the Kd is 0.7 nM. For B15, binding was put at a Kd of 7.6 nM.

Molecule B16 showed a Kd of 1.3 nM. Next, B17: 1.1 nM.

B18: the Kd amounted to 2.2 nM. The molecule B19 displayed a Kd of 2 nM. Regarding B20, the Kd was determined as 0.9 nM. The figure for B21 is 0.4 nM; for B22 it is 0.9 nM; for B23 it is 24.2 nM. Next, B24: 0.7 nM; B25: 3.4 nM; B26: 498 nM.

B27 displayed a Kd of 0.6 nM. Next, B28: 0.1 nM; B29: 0.8 nM. The figure for B30 is 7.7 nM.

B31 gave a dissociation constant Kd of 0.6 nM. Next, B32: 1.9 nM. B33 had a Kd of 1.8 nM.
